B1: HDV Ribozyme (parent)
chain: GGCCGGCAUGGUCCCAGCCUCCUCGCUGGCGCCGGCUGGGCAACAUUCCGAGGGGACCGUCCCCUCGGUAAUGGCGAAUGGGACCCA

Variants of: B1
Experiment: self-cleavage, relative activity (ratio to wild type); higher = more cleavage; co-transcriptional

Variant	self-cleavage
G25A G28U	0.0185
G25A G29C	0.0583
G25A G29U	0.0941
G25A G34A	0.0863
G25A G34C	0.229
G25A G35A	0.271
G25A G40U	0.161
G25A G50A	0.406
G25A G50U	0.242
G25A G53A	0.245
G25A G53C	0.248
G25A G54C	0.138
G25A G55C	0.191
G25A G67A	0.299
G25A G67C	0.277
G25A G68C	0.253
G25A G76C	0.217
G25A G81A	0.125
G25A G82U	0.119
G25A U27A	0.161
G25A U37A	0.213
G25A U37C	0.141
G25A U60A	0.295
G25A U60C	0.138

Variant	self-cleavage
G25A U72A	0.158
G25C A51C	0.128
G25C A77G	0.111
G25C A78G	0
G25C A83U	0.0923
G25C A87G	0.174
G25C C26A	0.196
G25C C26G	0.731
G25C C30G	0.0959
G25C C30U	0.0326
G25C C36U	0.0978
G25C C44A	0.185
G25C C44G	0.101
G25C C57G	0.119
G25C C62G	0.0615
G25C C62U	0.145
G25C C64G	0.0573
G25C C66G	0.0978
G25C C75A	0
G25C C85A	0.0594
G25C G28C	0
G25C G28U	0.119
G25C G29U	0.0773
G25C G31A	0.135

Variant	self-cleavage
G25C G34A	0.143
G25C G35U	0.0692
G25C G40C	0.156
G25C G40U	0.0563
G25C G52A	0.17
G25C G55U	0.089
G25C G68U	0.161
G25C G80U	0.126
G25C G82C	0.0326
G25C G82U	0.0755
G25C U27C	0.128
G25C U27G	0
G25C U37C	0.0554
G25C U47C	0
G25C U60C	0.0504
G25C U65A	0.155
G25C U72G	0.0639
G25U A70C	0.237
G25U A71G	0.101
G25U A77C	0.0504
G25U C30A	0.158
G25U C30G	0.148
G25U C41U	0.188
G25U C44A	0.0852

Variant	self-cleavage
G25U C44U	0.119
G25U C48A	0.332
G25U C57A	0.192
G25U C57G	0.208
G25U C58G	0.18
G25U C58U	0.217
G25U C61A	0.287
G25U C62U	0.0615
G25U C63A	0.0791
G25U C63G	0.203
G25U C63U	0.163
G25U C66G	0.0354
G25U C75A	0.0941
G25U C75G	0.128
G25U C85A	0.125
G25U C85G	0.0755
G25U G28A	0
G25U G29A	0.0369
G25U G31C	0.101
G25U G31U	0.0875
G25U G34U	0.026
G25U G35A	0.0415
G25U G40C	0.0297
G25U G40U	0.193

Variant	self-cleavage
G25U G52C	0.208
G25U G53C	0.155
G25U G54U	0.228
G25U G55U	0.151
G25U G59A	0.104
G25U G59C	0.0997
G25U G59U	0.0511
G25U G67C	0.277
G25U G73A	0.0923
G25U G73C	0.0415
G25U G73U	0.117
G25U G76A	0
G25U G76C	0.224
G25U G76U	0.389
G25U G80C	0.0733
G25U G81U	0.138
G25U U27G	0.185
G25U U37A	0.0831
G25U U60G	0.229
G25U U65G	0.269
G25U U69A	0.196
G25U U69C	0.229
G25U U72C	0.111
G25U U72G	0.181

Variant	self-cleavage
G25U U79A	0.0875
C26A A45C	0.554
C26A A45G	0.978
C26A A45U	1.19
C26A A51G	1.11
C26A A71C	1.07
C26A A78C	0.284
C26A A87U	1.21
C26A C30A	0.491
C26A C32G	0
C26A C36U	0.629
C26A C49U	0.849
C26A C57U	0.959
C26A C58A	1.24
C26A C58G	1.09
C26A C61A	0.865
C26A C61G	1.04
C26A C61U	0.974
C26A C62U	1.12
C26A C64G	0.95
C26A C75U	0.203
C26A G28A	0.166
C26A G31A	0.818
C26A G31C	0.453

Variant	self-cleavage
C26A G40U	0.946
C26A G50A	0.881
C26A G52C	0.872
C26A G53U	0.932
C26A G54U	1.03
C26A G55C	0.862
C26A G55U	1.17
C26A G59A	1
C26A G67C	0.985
C26A G67U	1.04
C26A G68C	0.87
C26A G68U	0.929
C26A G74C	0.237
C26A G74U	0.519
C26A G80A	0.544
C26A G80C	0.348
C26A G80U	0.398
C26A G82A	0.721
C26A U27C	1.04
C26A U27G	0.733
C26A U37A	0.166
C26A U37G	0.19
C26A U47A	0.731
